The values that follow come from US20070026059A1, “Ligands for orphan nuclear hormone receptor steroidogenic factor-1 (SF-1)” (priority 2005, published 2007).

Ends that are not written are not given here. * marks the point of attachment. Biotin = O=C1N[C@H]2[C@H](CS[C@H]2CCCCC(=O)*)N1

For assay [1], the target named is T1, SF-1 LBD (Mus musculus, UniProt P33242).
T1 construct: The mouse SF1 LBD (residues 221-462) was expressed as a 6×His fusion protein; made in house; host or cells: E. coli BL21 (DE3), pET24a
The assay can be described thus: AlphaScreen binding of LxxLL / co-repressor motif peptides to purified SF-1 LBD. The following applies: FIG. 1A. As to the method: A. Binding of various LxxLL motifs to the purified SF-1 LBD as measured by AlphaScreen™ assays. The background reading of either SF-1 or the peptides alone is less than 200. The peptide sequences are listed in experimental procedures. The results are the average of three experiments (error bars=standard deviation).
(§1) All phospholipids were purchased from Sigma and stored according to the manufacturer's instructions. The binding of the various peptide motifs to SF-1 was determined by AlphaScreen™ assays from Perkins-Elmer as described recently for other nuclear receptors (Xu et al., 2002). Wild type SF-1 and the mutated LBDs were purified as 6×His tag fusion proteins for the assays. The experiments were conducted with approximately 20-30 nM receptor LBD and 20 nM of biotinylated TIF2 peptide or other co-activator peptides in the presence of 5 μg/ml donor and acceptor beads in a buffer containing 50 mM MOPS, 50 mM NaF, 0.05 mM CHAPS, and 0.1 mg/ml bovine serum albumin, all adjusted to pH 7.4. An AlphaScreen kit for detection of hexa-His was used in this experiment and the binding signals for the TIF2/SF-1 interaction were detected in the absence or the presence of exogenous phospholipids. EC50/IC50 values for the effects of phospholipids on TIF2 binding to SF-1 were determined from a nonlinear least square fit of the data based on an average of three repeated experiments with standard errors typically less than 10% of measurements.
The peptides with an N-terminal biotinylation are listed below.
For orientation: In Alpha technology, singlet oxygen from a donor bead excites a nearby acceptor bead.

Assay [2] addresses T2, SF-1 LBD / TIF2 co-activator motif interaction (Mus musculus, UniProt P33242).
T2 construct: The mouse SF1 LBD (residues 221-462) was expressed as a 6×His fusion protein; made in house; host or cells: E. coli BL21 (DE3), pET24a
The experiment in a line: AlphaScreen assay of SF-1 binding to TIF2 co-activator LxxLL motif in absence or presence of phospholipids. It counts as biochemical. The following applies: for EC50: in the presence of 10% ethanol, FIG. 5E, read-out: potency (EC50) for recovering the SF-1/TIF2 binding activity. As to the method: The mouse SF1 LBD (residues 221-462) was expressed as a 6×His fusion protein from the expression vector pET24a (Novagen). BL21 (DE3) cells transformed with this expression plasmid were grown in LB broth at 16° C. to an OD600 of ˜1.0 and induced with 0.1 mM isopropylthio-β-D-galactoside (IPTG) for 16 hours. Cells were harvested, resuspended in 400 ml extract buffer (20 mM Tris pH8.0, 150 mM NaCl, 10% glycerol) per 6 l. of cells, and passed 3 times through a French Press with pressure set at 1000 pa. The lysate was centrifuged at 20,000 rpm for 30 minutes and the supernatant was loaded onto a 50 ml Ni-NTA column (Qiagen). The column was washed with extract buffer and the protein eluted with 300 ml gradient to buffer B (10 mM Tris, PH8.0, 150 mM NaCl, 10% glycerol and 500 mM imidazole). The protein was further purified with a Q-Sepharose column (Amersham Biosciences). A typical yield of the purified protein was about 100 mg from each liter of cells. To prepare the protein-cofactor complex, we added a 2-fold excess of the SHP peptide ([…]; SEQ ID NO:1) to the purified protein, followed by filter concentration to 15 mg/ml.
as §1

Assay [3] relates to mutated SF-1 LBD (pocket residue to tryptophan mutants). The experiment in a line: AlphaScreen assay: effect of 12PE on restoring co-activator binding of mutated SF-1 receptors. It counts as biochemical, mouse. As to conditions: 12PE 1.25 μM, FIG. 6E. As to the method: E. Effects of 12PE (1.25 μM) on restoring TIF2 binding activity of mutated SF-1 receptors.
as §1, with “EC50/IC50 values for the effects of phospholipids on TIF2 binding to SF-1 were determined from a nonlinear least square fit of the data based on an average of three repeated experiments with standard errors typically less than 10% of measurements.” left out
The SF-1 pocket comprises 51 residues that form intimate contacts with the bound phospholipid ligand. […] All mutated receptors expressed well and were readily purified for AlphaScreen assays that measure SF-1 recruitment of three different co-activator motifs that show interactions with SF-1 in FIG. 1A.

T2 sequence (P33242 221-462): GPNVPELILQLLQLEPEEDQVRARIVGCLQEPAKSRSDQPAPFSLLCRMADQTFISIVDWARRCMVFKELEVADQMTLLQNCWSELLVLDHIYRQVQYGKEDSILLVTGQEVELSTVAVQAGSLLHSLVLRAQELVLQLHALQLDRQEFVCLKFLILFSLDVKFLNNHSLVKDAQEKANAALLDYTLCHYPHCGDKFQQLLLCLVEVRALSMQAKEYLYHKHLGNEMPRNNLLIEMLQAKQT
T1 sequence (P33242 221-462): as above

For the compound “first LxxLL motif of SHP: N-terminally biotinylated peptide PCQGSASHPTILYTLLSPGP (SEQ ID NO:5) (Biotin-PCQGSASHPTILYTLLSPGP; listed as Mus musculus)”, the “interaction of peptide motif with purified SF-1” value (“interaction of peptide motif” for short) in assay [1] was “able to interact”.
Still for that read-out and setting: in the case of “TRAP220: N-terminally biotinylated peptide GHGEDFSKVSQNPILTSLLQITGN (SEQ ID NO:7) (Biotin-GHGEDFSKVSQNPILTSLLQITGN; listed as Mus musculus)” it was “not”.
As for `CCCCCCCCCCCCCCCC(=O)OC[C@H](COP(=O)([O-])OCC[N+](C)(C)C)OC(=O)CCCCCCCCCCCCCCC` [16PC, 1,2-dihexadecanoyl-sn-glycero-3-phosphocholine], the EC50 in assay [2] lay in the range of 80 to 120 nM.
Consider “TIF2 peptide: N-terminally biotinylated peptide QEPVSPKKKENALLRYLLDKDDTKD (SEQ ID NO:2), third LxxLL motif of co-activator TIF2”, for which the “AlphaScreen signal on incubation of SF-1 with peptide” value in assay [1] (background of SF-1 or peptide alone less than 200) is reported as ~45,000 photo counts.
As to “SMRT: N-terminally biotinylated co-repressor motif peptide QAVQEHASASTNMGLEAIIRKALMGKY (SEQ ID NO:10) (Biotin-QAVQEHASASTNMGLEAIIRKALMGKY; listed as Mus musculus)”, the “interaction of peptide motif” value in assay [1] was “did not interact”.
Regarding `CCO` [ethanol], the “loss of the SF-1/TIF2 binding activity” value in assay [2] (10% ethanol added to the binding buffer) was more than 90%.
For `CCCCCCCCCCCC(=O)OC[C@H](COP(=O)(O)OCCN)OC(=O)CCCCCCCCCCC` [12PE, 1,2-Didodecanoyl-sn-glycero-3-phosphoethanolamine], the EC50 in assay [2] amounted to 66 nM. In assay [3], the “restoration of co-activator binding of SF-1 mutants A270W, L266W and L348W” value is listed as “completely restored”; the “restoration of co-activator binding of SF-1 mutants L345W, V349W and A434W” value is listed as “cannot be restored”.
For the compound “SRC-1 second LxxLL motif: N-terminally biotinylated peptide SPSSHSSLTERHKILHRLLQEGSP (SEQ ID NO:3) (Biotin-SPSSHSSLTERHKILHRLLQEGSP; listed as Mus musculus)”, the “interaction of peptide motif” value in assay [1] is on record as “able to interact”.
Consider “second SHP LxxLL motif: N-terminally biotinylated peptide VABAPVPSILKKILLEEPNS (SEQ ID NO:6)”, for which, in assay [1], the “interaction of peptide motif” value is given as “not”.
`CCCCC/C=C\C/C=C\CCCCCCCC(=O)OC[C@H](COP(=O)([O-])OCC[N+](C)(C)C)OC(=O)CCCCCCC/C=C\C/C=C\CCCCC` [18PCD, 1,2-dilinoleonyl-sn-glycerol-3-phosphocholine]: the “effect on high basal SF-1/TIF2 interaction” value in assay [2] (absence of ethanol, FIG. 5D) is “disrupted the high basal interactions of SF-1 with TIF2 in a dose dependent manner”. Further, the IC50 in assay [2] (absence of ethanol, high basal interaction, FIG. 5D, read-out: IC50 for inhibiting the SF-1/TIF2 interactions) was 100 to 300 nM.
Consider “CBP: N-terminally biotinylated peptide SGNLVPDAASKHKQLSELLRGGSG (SEQ ID NO:8) (Biotin-SGNLVPDAASKHKQLSELLRGGSG; listed as Mus musculus)”, for which, in assay [1], the “interaction of peptide motif” value is given as “not”.
Regarding `CCCCCCCCCCCCCC(=O)OC[C@H](COP(=O)(O)OCCN)OC(=O)CCCCCCCCCCCCC` [14PE, 1,2-dimyristoyl-sn-glycero-3-phosphoethanolamine], the EC50 in assay [2] is 64 nM.
“SRC-1 fourth LxxLL motif: N-terminally biotinylated peptide QKPTSGPQTPQAQQKSLLQQLLTE (SEQ ID NO:4) (Biotin-QKPTSGPQTPQAQQKSLLQQLLTE; listed as Mus musculus)”: in assay [1], the “interaction of peptide motif” value is on record as “able to interact”.
The same measure, in the same setting: as for “N-COR: N-terminally biotinylated co-repressor motif peptide GHSFADPASNLGLEDIIRKALMGSF (SEQ ID NO:9)”, the entry is “did not interact”.
